Source: patent US7250265B2, “Method of detecting and evaluating angiotensinogen receptor-modulating compounds using placental cells” (Marshfield Clinic, priority 2001, dated 2007)

Key:
[1] = tested on: AGT receptor on CRL-7548 placental cells; assay: Competitive binding study (unlabeled AGT added at zero time); design: species or system human; conditions: prior addition of 100-fold excess of unlabeled AGT, FIG. 2
Protocol: (§1) Cell Culture: CRL-7548 placental cells obtained from American Type Culture Collection were cultured in 89% Dulbecco's modification of Eagle medium (DEME) (Cellgro, Herndon, Va.), 10% fetal bovine serum (FBS) (Sigma, St. Louis, Mo.), 1% penicillin-streptomycin (5,000 U/ml and 5,000 μg/ml) (Cellgro) in a humidified atmosphere of 5.0% CO2 and […] at 37° C. The cells were passed in FBS-free DEME before experimentation, seeded in 35 mm diameter plastic wells and cultured for two days to reach about 80-90% confluence.
(§2) Purified AGT was labeled with ^125I using iodobeads Pierce, Rockford, Ill.), 5 mCi/0.5 mg AGT in 0.1 mol/L sodium phosphate buffer, pH 6.0. The bound isotope was separated from the free isotope by gel filtration on Sephadex G-25.
(§3) Labeled AGT, 3 μg, was added to each well containing 1 ml DEME and 2-3×10^4 cells. The cells were harvested at 5 min, and 2, 4, 8, 16 and 24 h, washed five times with DEME, lysed in a buffer containing 0.1 mol/L Tris, 2 mmol/L EDTA, 1% Triton-X 100, 1 μmol/L DTT, pH 7.8, and the radioactivity of the whole lysate measured. Each experiment contained two duplicates and the reported values are the mean of two experiments. The results are presented graphically in FIG. 1
This Example was carried out as described in Example 1, except that a 100-fold excess of unlabeled AGT was added at zero time. The cells were harvested at 5 min, and 4, 8 and 24 h. […]

[2] = tested on: AGT receptor on CRL-7548 placental cells; assay: Competitive displacement study (unlabeled AGT added at 8 h); type: binding, human
Protocol: as §1, §2, §3
[…] The cells were harvested at 5 min and at 2 intervals through 18 h.

CRL-7548 placental cells = assay: Acid wash study (surface-bound versus internalized AGT); type: cell-based, human; conditions: for bound AGT removed from the cells by acid wash: 0.2 mol/L acetic acid, 0.5 mol/L NaCl, pH 2.5, 4° C., at 8 h
Protocol: as §1, §2, §3
This Example was carried out as described in Example 1. At 8 h, the cells in one set of duplicate wells were washed five times with DEME. Another set of duplicate samples were incubated with 0.2 mol/L acetic acid, 0.5 mol/L NaCl, pH 2.5, on ice (4° C.) for 6 min, and then washed five times with the acid wash. The control duplicates and the acid-washed duplicates were lysed and radioactivity was measured.

CRL-7458 fibroblasts = assay: AGT uptake in other placental cell lines; type: cell-based; conditions: fibroblasts from human placenta at 37 weeks gestation (CRL-7458)
Excerpt: (§4) The cells used in Examples 1-4 are fibroblasts originally derived from a human placenta obtained at 5 months gestation. Binding studies were also done with fibroblasts derived from a human placenta obtained at 37 weeks gestation (CRL-7458) and with fibroblasts derived from a human placenta at 40 weeks gestation (CRL-7459). These cells also took up AGT.

CRL-7459 fibroblasts = assay: AGT uptake in other placental cell lines; type: cell-based; conditions: fibroblasts from human placenta at 40 weeks gestation (CRL-7459)
Excerpt: as §4

[3] = tested on: AGT receptor on CRL-7548 placental cells; assay: AGT binding: 125I-labeled AGT bound by placental-derived cells; design: species or system human; conditions: 3 μg labeled AGT per well, 2-3×10^4 CRL-7548 cells, FIG. 1
Protocol: as §1
The AGT used in the Examples was purified from human plasma as described in Tewksbury (1983) Fed. Proc. 42:2724-2728; and Tewksbury et al. (1981) Biochem. Biophys. Res. Commun. 99:1311-1315. The specific Ang I content was 20 μg Ang I/mg protein. The theoretical value is 21 μg Ang I/mg protein.
as §2
as §3, with “Each experiment contained two duplicates and the reported values are the mean of two experiments. The results are presented graphically in FIG. 1” left out

[4] = from displacement by unlabeled AGT

Molecule	decrease in maximal binding of 125I-AGT [1]	bound 125I-AGT displaced ([2]; excess of unlabeled AGT added, FIG. 3)	share of AGT bound to an AGT-specific receptor [2, 4]	share of total binding attributed to nonspecific binding [2, 4]	bound AGT removed from the cells by acid wash (CRL-7548 placental cells)	bound AGT internalized by the cells (CRL-7548 placental cells; inferred from acid wash at 8 h)	AGT uptake (CRL-7458 fibroblasts)	AGT uptake (CRL-7459 fibroblasts)	time to saturation of binding by placental-derived cells [3]
angiotensinogen (protein, UniProt P01019 25-476, looked up, AGT purified from human plasma; specific Ang I content 20 μg Ang I/mg protein) Angiotensinogen: DRVYIHPFHLVIHNESTCEQLAKANAGKPKDPTFIPAPIQAKTSPVDEKALQDQLVLVAAKLDTEDKLRAAMVGMLANFLGFRIYGMHSELWGVVHGATVLSPTAVFGTLASLYLGALDHTADRLQAILGVPWKDKNCTSRLDAHKVLSALQAVQGLLVAQGRADSQAQLLLSTVVGVFTAPGLHLKQPFVQGLALYTPVVLPRSLDFTELDVAAEKIDRFMQAVTGWKTGCSLMGASVDSTLAFNTYVHFQGKMKGFSLLAEPQEFWVDNSTSVSVPMLSGMGTFQHWSDIQDNFSVTQVPFTESACLLLIQPHYASDLDKVEGLTFQQNSLNWMKKLSPRTIHLTMPQLVLQGSYDLQDLLAQAELPAILHTELNLQKLSNDRIRVGEVLNSIFFELEADEREPTESTQQLNKPEVLEVTLNRPFLFAVYDQSATALHFLGRVANPLSTA	54%	70%	70%	approximately 30%	46%	about half	took up AGT	took up AGT	–
^125I-AGT: Purified AGT labeled with ^125I using iodobeads (protein, UniProt P01019 25-476, looked up, 125I label, Purified AGT labeled with ^125I using iodobeads) Angiotensinogen: DRVYIHPFHLVIHNESTCEQLAKANAGKPKDPTFIPAPIQAKTSPVDEKALQDQLVLVAAKLDTEDKLRAAMVGMLANFLGFRIYGMHSELWGVVHGATVLSPTAVFGTLASLYLGALDHTADRLQAILGVPWKDKNCTSRLDAHKVLSALQAVQGLLVAQGRADSQAQLLLSTVVGVFTAPGLHLKQPFVQGLALYTPVVLPRSLDFTELDVAAEKIDRFMQAVTGWKTGCSLMGASVDSTLAFNTYVHFQGKMKGFSLLAEPQEFWVDNSTSVSVPMLSGMGTFQHWSDIQDNFSVTQVPFTESACLLLIQPHYASDLDKVEGLTFQQNSLNWMKKLSPRTIHLTMPQLVLQGSYDLQDLLAQAELPAILHTELNLQKLSNDRIRVGEVLNSIFFELEADEREPTESTQQLNKPEVLEVTLNRPFLFAVYDQSATALHFLGRVANPLSTA	–	–	–	–	46%	–	–	–	2 to 4 h
